Measured values: article doi:10.1101/2022.12.03.518990
Where two headings read alike, the source gives them in different places.

Assays:
[1] = target: GMPCPP-stabilized microtubules (TAMRA-labeled, polymerized from bovine brain tubulin) (bovine) (UniProt Q6B856); experiment: single-molecule TIRF microscopy, dwell times
[2] = target: GMPCPP-stabilized microtubules (TAMRA-labeled, polymerized from bovine brain tubulin) (bovine) (UniProt Q6B856); experiment: single-molecule TIRF microscopy, dwell times; remark: listed apart in the source

Chain of UniProt Q6B856 (Q6B856 whole entry, looked up): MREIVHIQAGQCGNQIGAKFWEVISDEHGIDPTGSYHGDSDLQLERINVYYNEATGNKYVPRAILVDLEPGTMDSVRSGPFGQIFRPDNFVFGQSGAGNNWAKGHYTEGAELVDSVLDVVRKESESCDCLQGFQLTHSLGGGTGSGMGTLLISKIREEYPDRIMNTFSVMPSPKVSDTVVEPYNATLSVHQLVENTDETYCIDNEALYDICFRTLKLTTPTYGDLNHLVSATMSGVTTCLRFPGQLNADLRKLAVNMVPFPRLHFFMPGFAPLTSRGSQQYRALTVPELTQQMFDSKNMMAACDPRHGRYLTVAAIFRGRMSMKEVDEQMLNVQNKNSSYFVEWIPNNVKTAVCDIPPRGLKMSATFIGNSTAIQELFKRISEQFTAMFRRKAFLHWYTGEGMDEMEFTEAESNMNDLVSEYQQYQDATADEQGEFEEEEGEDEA

mean dwell time [1]: 3.8 s
mean dwell time [2]: 0.53 s
Substance: His-EGFP-L-TOG2-S (EGFP-tagged TOG2 domain and serine-arginine-rich region of human CLASP2α) (domain or fragment)
